In this assay the target is T1, Exendin-4 (Heloderma suspectum (Gila monster); …).
T1 construct: also called synthetic exendin-4
The assay is described as follows: displacement of radiolabeled GLP-1 from RINm5f plasma membranes.

B1: GLP-1 receptor (plasma membrane preparation of rat insulinoma cell line RINm5f) (receptor)
chain: GPRPQGATVSLSETVQKWREYRHQCQRFLTEAPLLATGLFCNRTFDDYACWPDGPPGSFVNVSCPWYLPWASSVLQGHVYRFCTAEGIWLHKDNSSLPWRDLSECEESKQGERNSPEEQLLSLYIIYTVGYALSFSALVIASAILVSFRHLHCTRNYIHLNLFASFILRALSVFIKDAALKWMYSTAAQQHQWDGLLSYQDSLGCRLVFLLMQYCVAANYYWLLVEGVYLYTLLAFSVFSEQRIFKLYLSIGWGVPLLFVIPWGIVKYLYEDEGCWTRNSNMNYWLIIRLPILFAIGVNFLVFIRVICIVIAKLKANLMCKTDIKCRLAKSTLTLIPLLGTHEVIFAFVMDEHARGTLRFVKLFTELSFTSFQGFMVAVLYCFVNNEVQMEFRKSWERWRLERLNIQRDSSMKPLKCPTSSVSSGATVGSSVYAATCQNSCS
notes: whole, on cells; The receptor stood in a plasma membrane preparation of the cells, not on intact cells; also called GLP-1 receptors; RINm5f membranes
For B1, the binding result is on record as “binds”.

For the origin of these results see patent publication US20130165379A1 (AMYLIN PHARMACEUTICALS, published 2013).
